From patent US20220332789A1 (COMBIKINE BIOTECHNOLOGY, published 2022) come the findings set out here.

The target of experiment [1] is IgE (NIP IgE, AbD Serotec) (Homo sapiens (Human)), P01854. Briefly: cell-based or functional assay.
Experiment [2] addresses T1, IgE-Fc (UniProt P01854-1 104-428, limits assumed).
T1 construct: domain: IgE-Fc; In SPR it was captured on the chip by the α-Cε4 Fab; also called α-Cε4 Fab captured IgE-Fc; IgE-Fc-A488
The experiment can be described thus: flow cytometry competition: 1 nM IgE-Fc-A488 binding to FcεRI on RBL SX-38 cells.

The target of experiment [3] is T1, IgE-Fc. The experiment can be described thus: SPR (Biacore), steady state analysis, one-to-one binding model, derCD23 0-4 µM over α-Cε4 Fab captured IgE-Fc. The method, then: (§1) An α-Cε4 Fab CM5 sensor surface was prepared using amine-coupling and a mock amine-coupled surface was used as a reference-subtraction control. […] Injections were performed at a flow rate of 25 μl·min⁻¹ in a running buffer of 10 mM HEPES, pH 7.4, 150 mM NaCl, 4 mM CaCl₂, and 0.005% (v/v) surfactant P-20 (GE Healthcare).

Experiment [4] addresses T1, IgE-Fc. Briefly: SPR (Biacore T200), monophasic kinetic fitting, derCD23 4000 nM to 31 nM over α-Cε4 Fab captured IgE-Fc, pH 7.4, 4 mM CaCl2. As to the method: as §1

Chain of IgE (NIP IgE, AbD Serotec) (Homo sapiens (Human)), P01854 (P01854 other isoform, or with tags, fused parts or gaps limits assumed): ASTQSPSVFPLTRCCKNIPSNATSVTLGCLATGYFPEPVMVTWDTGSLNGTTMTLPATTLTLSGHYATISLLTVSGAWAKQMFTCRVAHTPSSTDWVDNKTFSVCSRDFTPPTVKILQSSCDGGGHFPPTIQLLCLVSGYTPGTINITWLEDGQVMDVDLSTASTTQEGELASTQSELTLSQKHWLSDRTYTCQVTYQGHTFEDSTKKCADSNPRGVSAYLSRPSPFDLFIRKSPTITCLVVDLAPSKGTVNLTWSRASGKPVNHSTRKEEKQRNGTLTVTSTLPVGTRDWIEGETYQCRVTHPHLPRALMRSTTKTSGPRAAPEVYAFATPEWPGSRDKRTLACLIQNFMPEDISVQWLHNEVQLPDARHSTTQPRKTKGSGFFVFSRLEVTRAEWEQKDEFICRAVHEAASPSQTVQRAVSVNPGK
T1 sequence (P01854 other isoform, or with tags, fused parts or gaps limits assumed): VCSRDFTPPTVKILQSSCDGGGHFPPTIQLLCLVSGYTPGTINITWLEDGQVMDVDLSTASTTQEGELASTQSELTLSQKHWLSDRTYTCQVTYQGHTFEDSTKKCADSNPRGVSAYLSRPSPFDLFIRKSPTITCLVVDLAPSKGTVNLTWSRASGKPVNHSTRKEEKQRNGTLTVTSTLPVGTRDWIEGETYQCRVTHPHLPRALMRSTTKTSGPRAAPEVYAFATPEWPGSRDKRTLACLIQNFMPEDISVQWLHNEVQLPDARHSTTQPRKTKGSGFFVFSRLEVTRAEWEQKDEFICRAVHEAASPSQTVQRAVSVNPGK

B1: anti-IgE^4 (Fc fusion)
chain: EASDLLERLREEVTKLRMELQVSSGFVCNTCPEKWINFQRKCYYFGKGTKQWVHARYACDDMEGQLVSIHSPEEQDFLTKHASHTGSWIGLRNLDLKGEFIWVDGSHVDYSNWAPGEPTSRSQGEDCVMMRGSGRWNDAFCDRKLGAWVCDRLATCTPPASEGSAESMGPDSRPDPDGRLPTPSAPLHSGGGGSGGGGSGGGGSGGGGSASISAMVRSPRGPTIKPCPPCKCPAPNLEGGPSVFIFPPKIKDVLMISLSPIVTCVVVDVSEDDPDVQISWFVNNVEVHTAQTQTHREDYNSTLRVVSALPIQHQDWMSGKAFACAVNNKDLPAPIERTISKPKGSVRAPQVYVLPPPEEEMTKKQVTLTCMVTDFMPEDIYVEWTNNGKTELNYKNTEPVLDSDGSYFMYSKLRVEKKNWVERNSYSCSVVHEGLHNHHTTKSFSRTPGK
modifications: here or on the partner: In the flow-cytometry assays the IgE carried AlexaFluor-488 dye at unspecified positions. The letters do not show this.
In experiment [1], B1 gave an IC50 of inhibition of IgE mediated degranulation of 10 to 30 nM and an efficacy of inhibition of IgE mediated degranulation of basophils of 100%.

B2: anti-IgE^4 (Fc fusion)
chain: B1 chain
notes: also called biologic anti-IgE^4
B2: in the experiment with IgE-Fc [2], the “IC50 (read off the curve)” value is approximately 7 nM.

B3: derCD23 (receptor)
chain: SGFVCNTCPEKWINFQRKCYYFGKGTKQWVHARYACDDMEGQLVSIHSPEEQDFLTKHASHTGSWIGLRNLDLKGEFIWVDGSHVDYSNWAPGEPTSRSQGEDCVMMRGSGRWNDAFCDRKLGAWVCDRLATCTPPASEGSAE
notes: also called derCD23 monomer; CD23 monomer
With B3, the equilibrium dissociation constant (Kd) with IgE-Fc [3] turned out to be 1820 nM; with IgE-Fc [4] it was 1800 nM.

B4: hCD23-G4S3-mIgG2a Fc (Fc fusion)
chain: EASDLLERLREEVTKLRMELQVSSGFVCNTCPEKWINFQRKCYYFGKGTKQWVHARYACDDMEGQLVSIHSPEEQDFLTKHASHTGSWIGLRNLDLKGEFIWVDGSHVDYSNWAPGEPTSRSQGEDCVMMRGSGRWNDAFCDRKLGAWVCDRLATCTPPASEGSAESMGPDSRPDPDGRLPTPSAPLHSGGGGSGGGGSGGGGSASISAMVRSPRGPTIKPCPPCKCPAPNLEGGPSVFIFPPKIKDVLMISLSPIVTCVVVDVSEDDPDVQISWFVNNVEVHTAQTQTHREDYNSTLRVVSALPIQHQDWMSGKAFACAVNNKDLPAPIERTISKPKGSVRAPQVYVLPPPEEEMTKKQVTLTCMVTDFMPEDIYVEWTNNGKTELNYKNTEPVLDSDGSYFMYSKLRVEKKNWVERNSYSCSVVHEGLHNHHTTKSFSRTPGK
modifications: here or on the partner: In the flow-cytometry assays the IgE carried AlexaFluor-488 dye at unspecified positions. The letters do not show this.
Take B4: in experiment [1], the Extracellular supernatant (IgE remaining prior to buffer change), 1 nM IgE with 0.01 nM biologic, percentage of IgE turned out to be 7%; the Extracellular supernatant (IgE remaining prior to buffer change), 1 nM IgE with 0.05 nM biologic, percentage of IgE is 4.5%; the Extracellular supernatant (IgE remaining prior to buffer change), 1 nM IgE with 0.5 nM biologic, percentage of IgE stood at 1%; the Extracellular supernatant (IgE remaining), 1 nM IgE with 0.01 nM biologic, percentage of IgE is 8%. In experiment [1], this molecule showed an Extracellular supernatant (IgE remaining), 1 nM IgE with 0.05 nM biologic, percentage of IgE of 5%; an Extracellular supernatant (IgE remaining), 1 nM IgE with 0.5 nM biologic, percentage of IgE of 1%; an IC50 of inhibition of IgE mediated degranulation of 10 to 30 nM; an IgE Intracellular retention, 1 nM IgE with 0.01 nM biologic, percentage of IgE of 92%. In experiment [1], the IgE Intracellular retention, 1 nM IgE with 0.05 nM biologic, percentage of IgE was found to be 94%; the IgE Intracellular retention, 1 nM IgE with 0.5 nM biologic, percentage of IgE was 98%; the IgE Intracellular retention, 1 nM IgE with 1 nM biologic, percentage of IgE is 95%; the IgE Intracellular retention, 1 nM IgE with 5 nM biologic, percentage of IgE amounted to 93%. In experiment [1], this molecule showed an IgE Intracellular retention, 1 nM IgE with 50 nM biologic, percentage of IgE of 90%; an IgE Intracellular retention, 1 nM IgE with 500 nM biologic, percentage of IgE of 79%; an IgE Intracellular retention, 1 nM IgE with 1000 nM biologic, percentage of IgE of 65%; an IgE Intracellular retention, 1 nM IgE with 2000 nM biologic, percentage of IgE of 52%. In experiment [1], the IgE Uptake, 1 nM IgE with 0.01 nM biologic, percentage of IgE was 92%; the IgE Uptake, 1 nM IgE with 0.05 nM biologic, percentage of IgE worked out at 95%; the IgE Uptake, 1 nM IgE with 0.5 nM biologic, percentage of IgE was 99%; the IgE Uptake, 1 nM IgE with 1 nM biologic, percentage of IgE came out at 100%. Also, in experiment [1], the IgE Uptake, 1 nM IgE with 5 nM biologic, percentage of IgE worked out at 100%; the IgE Uptake, 1 nM IgE with 50 nM biologic, percentage of IgE was determined as 100%; the IgE Uptake, 1 nM IgE with 500 nM biologic, percentage of IgE was 100%; the IgE Uptake, 1 nM IgE with 1000 nM biologic, percentage of IgE is 100%. In experiment [1], this molecule displayed an IgE Uptake, 1 nM IgE with 2000 nM biologic, percentage of IgE of 100% and an efficacy of inhibition of IgE mediated degranulation of basophils of 90%.

B5: hCD23-G4S3-mIgG2a Fc (Fc fusion)
chain: B4 chain
notes: It has two CD23 monomers, paired through the IgG Fc; also called anti-IgE^3; IgE^3
B5: the “IC50 (read off the curve)” value with IgE-Fc [2] was approximately 10 nM.

B6: anti-IgE^0 (Fc fusion)
chain: EASDLLERLREEVTKLRMELQVSSGFVCNTCPEKWINFQRKCYYFGKGTKQWVHARYACDDMEGQLVSIHSPEEQDFLTKHASHTGSWIGLRNLDLKGEFIWVDGSHVDYSNWAPGEPTSRSQGEDCVMMRGSGRWNDAFCDRKLGAWVCDRLATCTPPASEGSAESMGPDSRPDPDGRLPTPSAPLHSASISAMVRSPRGPTIKPCPPCKCPAPNLEGGPSVFIFPPKIKDVLMISLSPIVTCVVVDVSEDDPDVQISWFVNNVEVHTAQTQTHREDYNSTLRVVSALPIQHQDWMSGKAFACAVNNKDLPAPIERTISKPKGSVRAPQVYVLPPPEEEMTKKQVTLTCMVTDFMPEDIYVEWTNNGKTELNYKNTEPVLDSDGSYFMYSKLRVEKKNWVERNSYSCSVVHEGLHNHHTTKSFSRTPGK
modifications: here or on the partner: In the flow-cytometry assays the IgE carried AlexaFluor-488 dye at unspecified positions. The letters do not show this.
With B6, in experiment [1], the IC50 of inhibition of IgE mediated degranulation was more than 300 nM and the maximal efficacy of inhibition of IgE mediated degranulation of basophils was 50%.

B7: anti-IgE^0 (Fc fusion)
chain: B6 chain
notes: also called biologic anti-IgE^0
As to B7, the “IC50 (read off the curve)” value in the experiment with IgE-Fc [2] is approximately 30 nM.
